Test results: US20220031830A1

Columns and labels:
[1] = target: 11MUTB Env trimer (SOSIP.664) derived from wtBG505 (HIV-1 BG505); experiment: SPR (Biacore T200), SOSIP captured on 8ANC195 IgG, Fab injected, equilibrium fit 1:1
[2] = target: RC1 Env trimer (BG505-derived SOSIP.664 soluble gp140) (HIV-1 BG505); experiment: as above

Substance: Fab of the common inferred germline (iGL) precursor of PGT121 and 10-1074
- Kd [1]: 50 µM
- Kd [2]: 50 µM
